Bridges are numbered along the chain shown (N, C = ends). [ ]: non-standard residue; d: D form. dTic = O=C(O)[C@H]1Cc2ccccc2CN1; hSer = N[C@@H](CCO)C(=O)O; Orn = NCCC[C@H](N)C(=O)O; Dab = NCC[C@H](N)C(=O)O
Molecular target: T1, Formyl-Peptide Receptor 1 (UniProt P21462 1-350, limits assumed)
T1 sequence (looked up): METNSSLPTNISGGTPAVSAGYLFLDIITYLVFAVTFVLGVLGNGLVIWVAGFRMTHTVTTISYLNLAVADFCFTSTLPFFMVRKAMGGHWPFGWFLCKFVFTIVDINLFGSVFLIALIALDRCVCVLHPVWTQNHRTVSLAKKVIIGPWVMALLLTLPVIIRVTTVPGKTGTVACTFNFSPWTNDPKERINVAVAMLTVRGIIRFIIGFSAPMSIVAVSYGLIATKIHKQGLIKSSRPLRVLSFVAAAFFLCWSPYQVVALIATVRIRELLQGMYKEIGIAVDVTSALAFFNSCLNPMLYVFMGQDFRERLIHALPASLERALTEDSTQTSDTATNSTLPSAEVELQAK
Assay: cell-based or functional assay

| Binder | β-Arrestin IC50 [nM] |
| --- | --- |
| cyclo(YHKCHG[dP]WTICYEK[dA]E) (disulfide 4-11; SMILES CC[C@H](C)[C@@H]1NC(=O)[C@H]([C@@H](C)O)NC(=O)[C@H](Cc2c[nH]c3ccccc23)NC(=O)[C@H]2CCCN2C(=O)CNC(=O)[C@H](Cc2c[nH]cn2)NC(=O)[C@@H]2CSSC[C@H](NC1=O)C(=O)N[C@@H](Cc1ccc(O)cc1)C(=O)N[C@@H](CCC(=O)O)C(=O)N[C@@H](CCCCN)C(=O)N[C@H](C)C(=O)N[C@@H](CCC(=O)O)C(=O)N[C@@H](Cc1ccc(O)cc1)C(=O)N[C@@H](Cc1c[nH]cn1)C(=O)N[C@@H](CCCCN)C(=O)N2) [cyclo(-Tyr-His-Lys-Cys-His-Gly-^DPro-Trp-Thr-Ile-Cys-Tyr-Glu-Lys-^DAla-Glu-)] | 124 |
| cyclo(YHKCHG[dP]WTICYDK[dP]P) (disulfide 4-11; SMILES CC[C@H](C)[C@@H]1NC(=O)[C@H]([C@@H](C)O)NC(=O)[C@H](Cc2c[nH]c3ccccc23)NC(=O)[C@H]2CCCN2C(=O)CNC(=O)[C@H](Cc2c[nH]cn2)NC(=O)[C@@H]2CSSC[C@H](NC1=O)C(=O)N[C@@H](Cc1ccc(O)cc1)C(=O)N[C@@H](CC(=O)O)C(=O)N[C@@H](CCCCN)C(=O)N1CCC[C@@H]1C(=O)N1CCC[C@H]1C(=O)N[C@@H](Cc1ccc(O)cc1)C(=O)N[C@@H](Cc1c[nH]cn1)C(=O)N[C@@H](CCCCN)C(=O)N2) [cyclo(-Tyr-His-Lys-Cys-His-Gly-^DPro-Trp-Thr-Ile-Cys-Tyr-Asp-Lys-^DPro-Pro-)] | 37 |
| cyclo(YHKCHG[dP]WTICYET[dP]P) (disulfide 4-11; SMILES CC[C@H](C)[C@@H]1NC(=O)[C@H]([C@@H](C)O)NC(=O)[C@H](Cc2c[nH]c3ccccc23)NC(=O)[C@H]2CCCN2C(=O)CNC(=O)[C@H](Cc2c[nH]cn2)NC(=O)[C@@H]2CSSC[C@H](NC1=O)C(=O)N[C@@H](Cc1ccc(O)cc1)C(=O)N[C@@H](CCC(=O)O)C(=O)N[C@@H]([C@@H](C)O)C(=O)N1CCC[C@@H]1C(=O)N1CCC[C@H]1C(=O)N[C@@H](Cc1ccc(O)cc1)C(=O)N[C@@H](Cc1c[nH]cn1)C(=O)N[C@@H](CCCCN)C(=O)N2) [cyclo(-Tyr-His-Lys-Cys-His-Gly-^DPro-Trp-Thr-Ile-Cys-Tyr-Glu-Thr-^DPro-Pro-)] | 197 |
| cyclo(YHKCHG[dP]WTICYE[hSer][dP]P) (disulfide 4-11; SMILES CC[C@H](C)[C@@H]1NC(=O)[C@H]([C@@H](C)O)NC(=O)[C@H](Cc2c[nH]c3ccccc23)NC(=O)[C@H]2CCCN2C(=O)CNC(=O)[C@H](Cc2c[nH]cn2)NC(=O)[C@@H]2CSSC[C@H](NC1=O)C(=O)N[C@@H](Cc1ccc(O)cc1)C(=O)N[C@@H](CCC(=O)O)C(=O)N[C@@H](CCO)C(=O)N1CCC[C@@H]1C(=O)N1CCC[C@H]1C(=O)N[C@@H](Cc1ccc(O)cc1)C(=O)N[C@@H](Cc1c[nH]cn1)C(=O)N[C@@H](CCCCN)C(=O)N2) [cyclo(-Tyr-His-Lys-Cys-His-Gly-^DPro-Trp-Thr-Ile-Cys-Tyr-Glu-Hse-^DPro-Pro-)] | 24 |
| cyclo(YHKCHG[dP]WTICYWK[dP]P) (disulfide 4-11; SMILES CC[C@H](C)[C@@H]1NC(=O)[C@H]([C@@H](C)O)NC(=O)[C@H](Cc2c[nH]c3ccccc23)NC(=O)[C@H]2CCCN2C(=O)CNC(=O)[C@H](Cc2c[nH]cn2)NC(=O)[C@@H]2CSSC[C@H](NC1=O)C(=O)N[C@@H](Cc1ccc(O)cc1)C(=O)N[C@@H](Cc1c[nH]c3ccccc13)C(=O)N[C@@H](CCCCN)C(=O)N1CCC[C@@H]1C(=O)N1CCC[C@H]1C(=O)N[C@@H](Cc1ccc(O)cc1)C(=O)N[C@@H](Cc1c[nH]cn1)C(=O)N[C@@H](CCCCN)C(=O)N2) [cyclo(-Tyr-His-Lys-Cys-His-Gly-^DPro-Trp-Thr-Ile-Cys-Tyr-Trp-Lys-^DPro-Pro-)] | 15 |
| cyclo(YH[Orn]CHG[dP]WTICYEK[dP]P) (disulfide 4-11) [cyclo(-Tyr-His-Orn-Cys-His-Gly-^DPro-Trp-Thr-Ile-Cys-Tyr-Glu-Lys-^DPro-Pro-)] | 313 |
| cyclo(YHKCHG[dP]WTICYEH[dP]P) (disulfide 4-11; SMILES CC[C@H](C)[C@@H]1NC(=O)[C@H]([C@@H](C)O)NC(=O)[C@H](Cc2c[nH]c3ccccc23)NC(=O)[C@H]2CCCN2C(=O)CNC(=O)[C@H](Cc2c[nH]cn2)NC(=O)[C@@H]2CSSC[C@H](NC1=O)C(=O)N[C@@H](Cc1ccc(O)cc1)C(=O)N[C@@H](CCC(=O)O)C(=O)N[C@@H](Cc1c[nH]cn1)C(=O)N1CCC[C@@H]1C(=O)N1CCC[C@H]1C(=O)N[C@@H](Cc1ccc(O)cc1)C(=O)N[C@@H](Cc1c[nH]cn1)C(=O)N[C@@H](CCCCN)C(=O)N2) [cyclo(-Tyr-His-Lys-Cys-His-Gly-^DPro-Trp-Thr-Ile-Cys-Tyr-Glu-His-^DPro-Pro-)] | 73 |
| cyclo(YHKCHG[dTic]WTICYEK[dP]P) (disulfide 4-11; SMILES CC[C@H](C)[C@@H]1NC(=O)[C@H]([C@@H](C)O)NC(=O)[C@H](Cc2c[nH]c3ccccc23)NC(=O)[C@H]2Cc3ccccc3CN2C(=O)CNC(=O)[C@H](Cc2c[nH]cn2)NC(=O)[C@@H]2CSSC[C@H](NC1=O)C(=O)N[C@@H](Cc1ccc(O)cc1)C(=O)N[C@@H](CCC(=O)O)C(=O)N[C@@H](CCCCN)C(=O)N1CCC[C@@H]1C(=O)N1CCC[C@H]1C(=O)N[C@@H](Cc1ccc(O)cc1)C(=O)N[C@@H](Cc1c[nH]cn1)C(=O)N[C@@H](CCCCN)C(=O)N2) [cyclo(-Tyr-His-Lys-Cys-His-Gly-^DTic-Trp-Thr-Ile-Cys-Tyr-Glu-Lys-^DPro-Pro-)] | 21 |
| cyclo(YHKCHG[dP]WTICYE[Dab][dP]P) (disulfide 4-11; SMILES CC[C@H](C)[C@@H]1NC(=O)[C@H]([C@@H](C)O)NC(=O)[C@H](Cc2c[nH]c3ccccc23)NC(=O)[C@H]2CCCN2C(=O)CNC(=O)[C@H](Cc2c[nH]cn2)NC(=O)[C@@H]2CSSC[C@H](NC1=O)C(=O)N[C@@H](Cc1ccc(O)cc1)C(=O)N[C@@H](CCC(=O)O)C(=O)N[C@@H](CCN)C(=O)N1CCC[C@@H]1C(=O)N1CCC[C@H]1C(=O)N[C@@H](Cc1ccc(O)cc1)C(=O)N[C@@H](Cc1c[nH]cn1)C(=O)N[C@@H](CCCCN)C(=O)N2) [cyclo(-Tyr-His-Lys-Cys-His-Gly-^DPro-Trp-Thr-Ile-Cys-Tyr-Glu-Dab-^DPro-Pro-)] | 82 |
| cyclo(YHKCHG[dP]WTICYEG[dP]P) (disulfide 4-11; SMILES CC[C@H](C)[C@@H]1NC(=O)[C@H]([C@@H](C)O)NC(=O)[C@H](Cc2c[nH]c3ccccc23)NC(=O)[C@H]2CCCN2C(=O)CNC(=O)[C@H](Cc2c[nH]cn2)NC(=O)[C@@H]2CSSC[C@H](NC1=O)C(=O)N[C@@H](Cc1ccc(O)cc1)C(=O)N[C@@H](CCC(=O)O)C(=O)NCC(=O)N1CCC[C@@H]1C(=O)N1CCC[C@H]1C(=O)N[C@@H](Cc1ccc(O)cc1)C(=O)N[C@@H](Cc1c[nH]cn1)C(=O)N[C@@H](CCCCN)C(=O)N2) [cyclo(-Tyr-His-Lys-Cys-His-Gly-^DPro-Trp-Thr-Ile-Cys-Tyr-Glu-Gly-^DPro-Pro-)] | 250 |
| cyclo(YHKCHG[dP]WTICYEK[dP]P) (disulfide 4-11) [cyclo(-Tyr-His-Lys-Cys-His-Gly-^DPro-Trp-Thr-Ile-Cys-Tyr-Glu-Lys-^DPro-Pro-)] | 44 |
| cyclo(GHKCHG[dP]WTICYEK[dP]P) (disulfide 4-11; SMILES CC[C@H](C)[C@@H]1NC(=O)[C@H]([C@@H](C)O)NC(=O)[C@H](Cc2c[nH]c3ccccc23)NC(=O)[C@H]2CCCN2C(=O)CNC(=O)[C@H](Cc2c[nH]cn2)NC(=O)[C@@H]2CSSC[C@H](NC1=O)C(=O)N[C@@H](Cc1ccc(O)cc1)C(=O)N[C@@H](CCC(=O)O)C(=O)N[C@@H](CCCCN)C(=O)N1CCC[C@@H]1C(=O)N1CCC[C@H]1C(=O)NCC(=O)N[C@@H](Cc1c[nH]cn1)C(=O)N[C@@H](CCCCN)C(=O)N2) [cyclo(-Gly-His-Lys-Cys-His-Gly-^DPro-Trp-Thr-Ile-Cys-Tyr-Glu-Lys-^DPro-Pro-)] | 111 |

Source: US9957297B2, “Template-fixed peptidomimetics as inhibitors of FPR1” (POLYPHOR AG, priority 2011, dated 2018)
